Assay results published in the nanobody polyreactivity screen of Harvey et al. (2022).

Test: yeast display, Sf9 membrane polyspecificity reagent, FACS + sequencing; frameworks hold sequencing errors
Outline: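 Nanobodies from a synthetic yeast display library (Saccharomyces cerevisiae BJ5465), induced 36–48 hours with galactose, were stained 1 hour at 4 °C with 10% biotinylated, detergent-solubilized Sf9 membrane reagent, enriched on streptavidin microbeads, then FACS-sorted. Anti-HA (expression) and streptavidin (reagent binding) fluorescence set low and high (top ~1%) gates. Polyreactivity labels come from the gate of origin. Genes were colony-PCR amplified, MiSeq 2 × 250 sequenced and filtered by CDR length.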

| Sequence | polyreactivity (PSR sort gate) |
| --- | --- |
| QVQLGESGGGLVQAGGSLRLTCAASGFTFRGYAMGWYRQAPGKEWELVAANSRRGGSTYYADSVKGRFTISRDNAKYTVYLQMNSLKPEETAVYYCNAVGRFYFRFPPNNEYDYWGQGTQVTVSS | high polyreactivity |
| QVQLVESGGGLVQAGGSLRLSCAASGIIFYKYAMGWYRQAPGKERELVAAITSGGGRTYYADSVKGRFTISRDNAKNTVYLQMNSLKPEDTAVYYCNADTYSAGDYWGQGTQVTVSS | high polyreactivity |
| QVQLVESGGGLVQAGGSLRLSCAASGFIFYLNVMGWYRQAPGKERELVATITSGGSTNYADSVKGRFTISRDNAKNTVYLQMNSLKPEDTAVYYCAARRGKSYYWYNYWGQGTQVTVSS | high polyreactivity |
| QVQLVESGGGLVQAGGSLRLSCAASGLTLSYYAMGWYRQAPGKERELVATISWRTGSTYYADSVKGRFTISRDNAKNTVYLQMNSLKPEDTAVYYCNARGFQYSYSHLIYYPYDYWGQGTQVTVSS | high polyreactivity |
| QVQLVESGGGLVQSGGSLRLSCAASGFTFSRYAMGWYRQAPGKERELVAAIRLRDGITYYADSVKVRFTISRDNAKNTVYLQMNSLKPEDTAVYYFNAVNRTPVSQLDYWGQGTQVTVSS | high polyreactivity |
| QVQLVESGGGLVLAGGRLRLSCAASGFTLDYYTMGWYRLAPGKEREFVAAITRRTGNTYYADSVKGRFTISRDNEKITVYLQMNSLKPEDPAVYYCAATFWPWYSGITYYYWGQGTQVTVSS | high polyreactivity |
| QVQRVESAGGLVQAGGSLRLSCAASGFILDNYAMGWYRQAPGKERELVAAISGSGGSTYYADSVKGRFTISRDNAKNTVYLQMNSLKPEDTAVYYCNRDRLLRQYDYWGQGTQVTVSS | high polyreactivity |
| QVQLVESCGGLLQAGGSLPLSCPASGSISSYYAMGWYRQAPGKERELVASITSGASTNYADSVKGRFTISRDNAKNTVYLQMNSLKPEDTAVYYCAAYVVTYYYGTGYYSYDYWGQGSQVTVSS | low polyreactivity |
| QVQLVESGGGLVQAGGSLRLSCAASGLTFSLNAMGGYRQAPGKERELVAAIRGSGGSTYYADSVKGRFTISRDNAKNTVYLQMNSLKPEDTAVYYCNADQLVWQRYGVLYEYDYWGQGTQVTVSS | high polyreactivity |
| QVQLVESGGGLVQAGGSLRLSCAASGSTLGSYAMGWYRQAPGKERELVAAINTSGGNTYYADSVKGRFTISRDNAKNTVYLQMNSLKPEDTAVYYCNARYYGGGATFGYWGQGTQVTVSS | low polyreactivity |
| QVQLVESGGGLDQAGGSLRLSCAASGRTFANAMGWYRQAPGKERELVAGITSGGGRTYYADSVKGRFTMSRDNAKNTVYLQMNSLKPEDTAVYYCNRATPPGRLKSDSWGQGTQVTVSS | high polyreactivity |
| QVQLVESGGGLVQAGGSLRLICAASGRIFRRYAMGWYRQAPGKERELVASISLSGGSTYYADSVKGRFTISRDNAKNTVYLQMNSLKPEDTAVYYCAAVRPGVSNYGHWGQGTQLTVSS | high polyreactivity |
| QVQLVESGGCLVQAGGSLRLSCASSGSTFVRYTLGRYRQAPGKEREMVARISRTSSTNYADSVKGRFTISRDNAKNTVYLQMNSLKPEDTSVYYCNAREYYPTKSRFKYWGQGTQVTVSS | low polyreactivity |
| QVQLVESGGGLVQAGGSLRLSCAASGIIFYHNAMGWYRQAPGKERELVASITEIGGSTYYADSVKGRFTISRDNAKNTVYILMNSLKPEDTAVYYCAAGTLTSFSRYDYWGQGTQVTVSS | low polyreactivity |
| QVQLVESGGGLVQAGGSLRLSCAASGYNFRHYVMGWYRQAPGKERELVAAITYSGGSTYYADSVKGRFTISRDNAKNTVYLQMNSLKPEDTAVYYCAARRRRSDPYDFWGQGTQVTVSS | high polyreactivity |
| QVQLVESGGGLVQPGGSLRLSCAASGSIFAYNAMGWSRQAPGKERELVAAISSGGRTKYADSVKGRFTITRDNAKITVYFQMNRQKPEDTAVYYCAAESYTGKYSWVWKWYDYWGQGTQVSVSS | low polyreactivity |

| Sequence | polyreactivity (PSR sort gate) |
| --- | --- |
| QVQLVESGGGLVQAGGSLRLSCAASGSTFRYYALGWYRQAPGKEREVVASISIGGGSTYYADSVKGRFTISRDYAKNTVYVQMNSLKPEDTAVYYCAAERTIRAARPFFRTFDYWGQGTQVTVSS | low polyreactivity |
| QVQLVESGGGLVQAGGSLRLSCAASGSIVAYNAMAWYRQAPGKEWELVAAINSGSLTYYADSVTGRFTISRDNAKYTVYLPMNSLKPEDTAVYYCAAEWERWYYRYDYWGQGTQVTVSS | high polyreactivity |
| QVQLVESGGGLVQAGGSLRLSCAASGYIFAENAMGWYRQAPGKERELVATITYIGGSTHYADSVKGRFTISRDNAKNTVYLQMNSLKPEDTAVYYCNADNSTYYRSDFGYWGQGTQVTVSS | low polyreactivity |
| QVQLVESGGGLVQAGGSLRLSCAASGSTFDTNVMGWYRQAPGKERDLVAAIDVSGGSTYYADSVKGRFTISRDNAKNTVYLQMNSLKPVDTAVYYCAAVDGKYGMDYWGQGTQVTVST | low polyreactivity |
| QVQLVESWGGLVQAGGSLRLSSAASGSIFYHYAMGWYRQAPGKERELVAAISWRGASTYYADSVKGRFTISRDNAKNTVYLQMNSLKPEDTAVYYCARLSSSHPLYRDDYWGQGTQVTLSS | high polyreactivity |
| QVQLLESGGGLVQAGGSLRLSCAASGSNFSSYAMGWSRQAPGTERELVASISRRGGSTYYADSVKGRFTISRDNAKNTVYLQMNSLKPEDTAVYYCNASGGPYRYYYWGQGTQVTVSS | low polyreactivity |
| QVQLVESGGGIVQAGGSLRLSCAASGSTFSYYDMGWYRQAPGKERELVAAISWNGGTTYYADSVKGRFTISRDNAKNTVYLQMNSLKPEDTAVYYCAATWDFYWAPYDSWGQGTQVTVSS | low polyreactivity |
| QVQLVESGGGLVQAGGSLRLSCAASGSTFDKYAMGWYRQAPGKERELVAVISGSGGRTYYADSVKGRFTISRDNAKNTVYLQMNSLKPEDTAVYYCAARGSFKKGYWGQGTQVTVSS | high polyreactivity |
| QVQLVESGGGLVQAGGSLRLSCAASGFTFYRYGMGWYRPPPGKERELVAAINNDGTTNYADSVKGRFTISRDNAKNTVYLQLNSLKPEDTAVYYCAADYYRGRYSYRYDYWGQGTQVTVSS | low polyreactivity |
| QVQLVESGGGLVQAGGSLRLSCAASGIFFGGYYLGWYRQAPATEMELVAGIRSGGSTYYADSVKGRFTISRDNAKNTVYLQMNSLKPEDTAVYYCAKPYYWGDYSQSDSDYWGQGTQVTVSS | low polyreactivity |
| QVQLVESGGGLDQAGRSLRLSCAASGRTDVTYAMGWYRQAPGKEREFVAAISASGGTTYYADSVKGRFTISRDNSKNTVYLQMNSRKPEDTAVYYCAADIRGTVYLSSFWMEYWGQGTQVNVSS | low polyreactivity |
| QVQLEESGGGLVQAGGSLRLSCAASGFTFDGYAMGWYRPAPGKERELVAAITSSGGSTYYADSVKGRFTISRDNTKNTVYLQMNSLKPEDTAVYYCNAVYYYGYYYYWTEFNYWGQGTQVTVSS | high polyreactivity |
| QVQLVESGGGLVQAGGSLRLSCAASGRTFRDYVMGWYRQAPGKERELVAVISYRGSTYYADSVKGRFTISRDNAKNTVYLQMNSVKPEDTAVYYCAGRFSLEGGYYWGQGTQVTVSS | low polyreactivity |
| QVQLVESGGGLVQAGGSLRLTCAASGFTFAYKTMGWYRQAPGKERELVAAISWSGGRTYYADSVKGRFTISRDNAKNTVYLQMNSLKPEHTAVYYCAAEFWNQYGAYDYWGQGTQVTLSS | low polyreactivity |
| QVQLVESGGGLVQAGGSLRLSCAASGFIFRVNAMGWYRQAPGKEREFVAAITYSGGRTSYADSVKGRFTISRDNAKNTVYLQMNSLKPEDTAVYYCAALLYKPSVHAKYYYWGQGTQVTVSS | high polyreactivity |
| QVQLVESGGGLVQAGGSHRLSCAASGSTFYYYAMGWYRQAPGKERELVAAISKSGGRTYYADSVKGRFTFSRDNAKNTVYLQMNSLKPEDTAVYYCNAVQYLNGYDYWGQGTQVTVSS | high polyreactivity |
